Laboratory results: the supplement of paper PMC6755084

B1: F1*; the commonest letter at each place (parent)
chain: GAGACCGCAACTGAAAAGTTGTTATCACTTGTCGTAAGACACTTTGGATGGGTTGAAGTTCTGCACGTAGAAGCAAAAGGC

Variants of: B1
Test: fraction ligated after 30 min (ligated reads / total reads); higher = more ligase activity
Conditions: with F1*sub RNA substrate (template-directed ligation), 42 °C
Method in brief: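 Templates from an oligo pool were PCR-amplified, transcribed with T7 and gel-purified to give the ribozyme variants. Ligated and unligated products were separated on gel, reverse transcribed using barcoded primers, and read on a MiSeq. A quality filter of ≥20 was applied to core bases. Fraction ligated was taken as ligated reads as a share of all reads per variant.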

First: A24C C33T
Second: T45G T49C
The fraction ligated of the first is higher: 0.697 for the first, 0.0508 for the second.

First: A41G G55T
Second: A24G T44G
The fraction ligated of the first is lower: 0.754 for the first, 0.791 for the second.

Compared with G47T A48G, G47T A56G is lower in fraction ligated: 0.183 for the first, 0.0352 for the second.

Going from T35C G50C to T44A, the fraction ligated rises from 0.437 to 0.849.

First: C26A T45C
Second: C26A A56C
The fraction ligated of the first is higher: 0.0795 for the first, 0.0368 for the second.

Compared with C26A A56T, C40T is higher in fraction ligated: 0.14 for the first, 0.833 for the second.

First: T25C
Second: C40G A57G
The fraction ligated of the first is lower: 0.759 for the first, 0.8 for the second.

Compared with C40G A57T, T29A A48G is higher in fraction ligated: 0.79 for the first, 0.803 for the second.

Going from T29A A48C to A24T A37G, the fraction ligated rises from 0.761 to 0.792.

Compared with G34T G38T, C33T A56T is higher in fraction ligated: 0.82 for the first, 0.847 for the second.

Going from T30G A39G to C40G A41C, the fraction ligated falls from 0.841 to 0.784.

First: T45G G47C
Second: T30A C40T
The fraction ligated of the first is lower: 0.194 for the first, 0.825 for the second.

First: A36T A48T
Second: A36T A57C
The fraction ligated of the first is lower: 0.792 for the first, 0.823 for the second.

Compared with C26G T44G, C42T A48G is higher in fraction ligated: 0.776 for the first, 0.806 for the second.

Compared with C40A C42G, T49G is lower in fraction ligated: 0.803 for the first, 0.778 for the second.

Compared with T23A A56T, A24T G34T is higher in fraction ligated: 0.754 for the first, 0.76 for the second.

Going from G55A to G55T, the fraction ligated rises from 0.822 to 0.83.

Going from T32A G47A to C28G G31C, the fraction ligated rises from 0.597 to 0.81.

Compared with T23C A57T, T29G G34T is higher in fraction ligated: 0.794 for the first, 0.83 for the second.

First: G31A C42T
Second: C28A C33G
The fraction ligated of the first is higher: 0.839 for the first, 0.813 for the second.

First: A39G A57C
Second: C26T T45C
The fraction ligated of the first is higher: 0.821 for the first, 0.524 for the second.

First: A24C
Second: T30C G34A
The fraction ligated of the first is lower: 0.747 for the first, 0.792 for the second.

First: G31T T35G
Second: C33A A41T
The fraction ligated of the first is lower: 0.803 for the first, 0.839 for the second.

Compared with T29A C33T, C42A T43C is lower in fraction ligated: 0.859 for the first, 0.825 for the second.

Compared with C28G T49C, C26T G38C is higher in fraction ligated: 0.674 for the first, 0.81 for the second.

Going from C28T G46C to T29C A48C, the fraction ligated falls from 0.8 to 0.745.

Going from T29A G38A to A39G A56G, the fraction ligated falls from 0.85 to 0.792.

First: T25C A37T
Second: A27T T44A
The fraction ligated of the first is lower: 0.784 for the first, 0.825 for the second.

Going from T25G T44C to T25G T44G, the fraction ligated falls from 0.741 to 0.474.

Going from T25G T44A to T43A G55C, the fraction ligated falls from 0.737 to 0.724.

Going from G31T G55C to G34T C42T, the fraction ligated rises from 0.176 to 0.848.

First: C28T
Second: C33T T44A
The fraction ligated of the first is lower: 0.812 for the first, 0.844 for the second.

Compared with T23A G34A, T23A G34C is lower in fraction ligated: 0.814 for the first, 0.813 for the second.

Going from C28G G55A to T49G G55A, the fraction ligated falls from 0.779 to 0.688.

Going from T23C T44C to T35C G47A, the fraction ligated rises from 0.8 to 0.811.

Compared with C28A T30A, A27C C33T is lower in fraction ligated: 0.8 for the first, 0.795 for the second.

First: C26A C40A
Second: T45C G50T
The fraction ligated of the first is higher: 0.755 for the first, 0.0706 for the second.

First: C40T A57C
Second: A37T T45G
The fraction ligated of the first is higher: 0.823 for the first, 0.408 for the second.

Compared with T32G T49C, T25G C42G is higher in fraction ligated: 0.246 for the first, 0.737 for the second.

Compared with A36C A56C, A24T C40G is lower in fraction ligated: 0.804 for the first, 0.582 for the second.

Going from A24T A36G to A27G A48T, the fraction ligated falls from 0.519 to 0.195.

Compared with C26A C28T, A24T G46A is lower in fraction ligated: 0.584 for the first, 0.553 for the second.

Compared with A37G A41C, G38C G50C is lower in fraction ligated: 0.787 for the first, 0.0192 for the second.

First: G31T G34C
Second: C42G G55T
The fraction ligated of the first is lower: 0.771 for the first, 0.809 for the second.

Compared with A27G C40T, T44C G50C is lower in fraction ligated: 0.817 for the first, 0.224 for the second.

Compared with A41C G55A, T35G G38C is higher in fraction ligated: 0.804 for the first, 0.865 for the second.

Going from T29C A36T to A48C A56T, the fraction ligated falls from 0.834 to 0.289.

Going from T49A A57C to T49C G55C, the fraction ligated falls from 0.629 to 0.0675.

Going from T23G T32A to A24G T32G, the fraction ligated falls from 0.858 to 0.589.

Compared with T25C A41T, A24C A37G is lower in fraction ligated: 0.82 for the first, 0.626 for the second.

Going from A48G A57T to A41T A56G, the fraction ligated falls from 0.795 to 0.778.

First: C26T G31C
Second: A36T T44C
The fraction ligated of the first is lower: 0.408 for the first, 0.82 for the second.

First: A36T T44A
Second: A37T A39C
The fraction ligated of the first is higher: 0.844 for the first, 0.785 for the second.

Going from C33A T49C to A48C, the fraction ligated rises from 0.37 to 0.752.

First: A48G
Second: T43G T45C
The fraction ligated of the first is higher: 0.794 for the first, 0.319 for the second.

Going from A27C A41T to T25C G31C, the fraction ligated falls from 0.785 to 0.53.

First: T32C G46A
Second: G38T C40G
The fraction ligated of the first is lower: 0.763 for the first, 0.82 for the second.

First: C42A A57T
Second: A27T C42A
The fraction ligated of the first is higher: 0.848 for the first, 0.809 for the second.

Compared with A39T G55A, C26G A36C is lower in fraction ligated: 0.786 for the first, 0.0567 for the second.

First: C33G A57G
Second: G55T A56G A57T
The fraction ligated of the first is higher: 0.881 for the first, 0.0243 for the second.

Going from G55T A56G A57C to G34C G46A, the fraction ligated rises from 0.0609 to 0.789.

Compared with G34C G46C, A37C C40G is higher in fraction ligated: 0.757 for the first, 0.809 for the second.

First: T35C T44G
Second: T25A T32C
The fraction ligated of the first is higher: 0.823 for the first, 0.145 for the second.

Going from T25C G38C to T30G T49C, the fraction ligated rises from 0.0674 to 0.526.

Compared with C26T G55T, G47A G55T is lower in fraction ligated: 0.815 for the first, 0.221 for the second.

Going from T35C G38T to T32C G38C, the fraction ligated falls from 0.821 to 0.777.

First: A39C A41T
Second: A36G T43G
The fraction ligated of the first is lower: 0.751 for the first, 0.776 for the second.

First: A41T T45G
Second: C40G A56C
The fraction ligated of the first is lower: 0.283 for the first, 0.784 for the second.

Going from A24G G50T to T32C T44G, the fraction ligated rises from 0.491 to 0.793.

First: T23C T30C
Second: G31C C40G
The fraction ligated of the first is lower: 0.789 for the first, 0.796 for the second.

First: T32A C42G
Second: T32A C42T
The fraction ligated of the first is higher: 0.861 for the first, 0.845 for the second.

Compared with T32A C42A, T35G G50T is lower in fraction ligated: 0.843 for the first, 0.795 for the second.

Compared with A37G A56C, T25G G50A is lower in fraction ligated: 0.802 for the first, 0.103 for the second.

Going from C26T T43G to T23C, the fraction ligated rises from 0.79 to 0.846.

First: A24G G31A
Second: T44C G46C
The fraction ligated of the first is lower: 0.202 for the first, 0.8 for the second.

Going from C28A T49G to G31A A57C, the fraction ligated rises from 0.724 to 0.819.

Going from T32C T35C to A27T A41T, the fraction ligated falls from 0.829 to 0.779.

Going from T45A A56C to C28A T35G, the fraction ligated rises from 0.782 to 0.812.

First: C26T C42T
Second: T23C G55A
The fraction ligated of the first is higher: 0.837 for the first, 0.783 for the second.

Compared with T29G A48G, A24C G38C is lower in fraction ligated: 0.805 for the first, 0.274 for the second.

Going from G34T G46C to G38A G55T, the fraction ligated rises from 0.778 to 0.811.

Compared with C26G C28G, T35A is higher in fraction ligated: 0.611 for the first, 0.836 for the second.

Going from G31C A37T to A36C G47T, the fraction ligated falls from 0.79 to 0.356.

With A36C G47A the fraction ligated was 0.81.
